Data taken from paper PMC5512577, “PDE6δ-mediated sorting of INPP5E into the cilium is determined by cargo-carrier affinity” (Nature Communications, 2016).
Like-named read-outs stand apart in the source and are kept apart here.

Tests used:
[1] = system: GST-PDE6δ; test: GST-PDE6δ pull-down and release by Arl2/Arl3 from IMCD3 lysates; assay type: binding; conditions: 20 μM GST-PDE6δ on GSH-beads, 20 μM Arl2 or Arl3, 1 h 4 °C, anti-GFP immunoblot
Procedure: Figure 5 INPP5E ciliary enrichment is dependent on high affinity to PDE6δ. […] White bar indicates 5 μm. (b) Bar chart showing ratio of GFP intensity in cilia to the total GFP intensity, indicating the enrichment of GFP-tagged protein in cilia. […] Error bars indicate s.d., n≥35 (P<0.05; Student’s t-test). […] Formed complexes in the pulldown experiment were incubated with Arl2 or Arl3 as indicated. The amount of GFP-tagged interacting proteins bound to GST-PDE6δ was detected by immunoblotting with an antibody against GFP.
IMCD3 cells stably expressing GFP-INPP5E(WT) or GFP-INPP5E(KS) were lysed in lysis buffer containing 75 mM Hepes pH 7.5, 150 mM KCl, 1.5 mM EGTA, 1.5 mM MgCl2, 15% glycerol, 0.2% NP-40 and one protease inhibitor cocktail tablet (Roche). Cell lysates were cleared and supernatants were incubated for 1 h at 4 °C with 100 μl GSH-beads conjugated with 20 μM GST-PDE6δ. For the release assay, 20 μM of either Arl2 or Arl3 were added to the previous mixture and incubated for further 1 h at 4 °C. After 5 times washing with the lysis buffer, the complexes were analysed by western blotting using anti-GFP antibody (1:500; Santa Cruz Biotechnology sc-9996) and anti GST (1:5,000; home source). Full scans of western blots are provided in Supplementary Fig. 6.

[2] = system: PDE6δ; test: Stopped-flow fluorescence polarization kinetics of mantGppNHp-loaded Arl proteins with PDE6δ; assay type: binding; conditions: for association rate constant kon with PDE6δ: 0.2 μM mantGppNHp-loaded Arl protein, increasing PDE6δ; for association rate constant kon with PDE6δ / dissociation rate constant koff from PDE6δ: 20 °C; for association rate constant kon with PDE6δ / dissociation rate constant koff from PDE6δ / Kd: n=4; for dissociation rate constant koff from PDE6δ: 2 μM PDE6δ with 0.2 μM mantGppNHp-loaded Arl protein, 200-fold excess unlabelled Arl protein; for Kd: calculated from kinetic constants, ± s.d., read-out: equilibrium dissociation constant Kd with PDE6δ (Kd=koff/kon)
Procedure: Previously we have shown that the N-terminal helix of Arl3 is important to release myristoylated cargo from a complex with the shuttle factor UNC119 (ref. [30]). To find out whether the N-terminus of Arl3 and/or Arl2 has a similar if any role in the interaction with PDE6δ, fluorescence polarization measurements using full-length Arl3 (Arl3^fl) or an N-terminal truncated form (Arl3^ΔN) were performed. […] To investigate the role of the N-terminal helix of Arl3 in the release mechanism, we measured association and dissociation rate constants to determine the affinity of PDE6δ towards Arl2 and Arl3 in both full-length and N-terminal truncated forms. Association rate constants between the four proteins Arl3^fl, Arl3^ΔN, Arl2^fl and Arl2^ΔN are rather similar although association is almost twice as fast for full-length Arl3 as compared with Arl2 (Fig. 3a,b). […] The Kd values for Arl2^fl and Arl3^fl differ from previously determined values, likely because of the different techniques used.
Figure 3 Contribution of the N-terminal helix of Arl3 to the binding affinity with PDE6δ. (a) Stopped-flow fluorescence polarization kinetic measurements of the association of 0.2 μM mantGppNHp loaded Arl proteins with increasing concentrations of PDE6δ. The observed pseudo-first order rate constants (kobs) are plotted against PDE6δ concentration. (b) Bar charts of the association rate constants (kon) determined in a. (c,d) Stopped-flow fluorescence polarization kinetic experiments where complexes of 2 μM PDE6δ with 0.2 μM of full-length (Arl^fl) or N-terminally deleted (Arl^ΔN) mantGppNHp loaded Arl proteins as indicated were mixed with 200-fold excess of unlabelled Arl proteins to determine koff. (e) Bar charts of the dissociation rate constants (koff) from experiments in c,d. (f) Bar charts of the equilibrium dissociation constants (Kd) of complexes between PDE6δ and Arl proteins as determined from the kinetic constants in c,e. Error bars indicate s.d., n=4. TEXT PRINTED IN THE PICTURE: (b) Arl3^fl: kon (μM^-1s^-1): 5.97 | (b) Arl3^ΔN: kon (μM^-1s^-1): 4.25 | (b) Arl2^fl: kon (μM^-1s^-1): 2.25 | (b) Arl2^ΔN: kon (μM^-1s^-1): 3.09 | (e) Arl3^fl: koff (s^-1): 0.035 | (e) Arl3^ΔN: koff (s^-1): 0.92 | (e) Arl2^fl: koff (s^-1): 0.33 | (e) Arl2^ΔN: koff (s^-1): 0.98 | (f) Arl3^fl: kd (nM): 5.84 | (f) Arl3^ΔN: kd (nM): 217 | (f) Arl2^fl: kd (nM): 149 | (f) Arl2^ΔN: kd (nM): 319
All fluorescence polarization measurements were performed at 20 °C in a buffer containing 25 mM Tris-HCl (pH 7.5), 50 mM NaCl and 3 mM DTE. For the titration measurement, data were recorded with Fluoromax-4 spectrophotometer (HORIBA Jobin Yvon, Munich, Germany) with excitation and emission wavelengths at 530 and 580 nm for TAMRA-labelled INPP5E peptide and at 495 and 520 nm for fluorescein-labelled Rheb peptide. The kinetic measurements were monitored by a stopped-flow apparatus (Applied Photophysics) in the polarization mode using an excitation wavelength of 366 nm and filter with 420 nm cutoff for mantGppNHp bound Arl protein, excitation wavelength of 495 nm and filter with 520 nm cutoff for fluorescein-labelled Rheb peptide and excitation wavelength of 530 nm and filter with 570 nm cutoff for TAMRA-labelled INPP5E peptide. Data analysis was done with GraFit 5.0 program (Erithracus Software). Concentrations used for each experiment are indicated in the corresponding figure legend.

Kd ([2]; listed as Arl2^ΔN) [nM]	Kd [2] [nM]	Molecule	release from GST-PDE6δ by Arl2·GppNHp / Arl3·GppNHp [1]	difference in koff / residence time with PDE6δ, full-length versus N-terminally deleted form [2]	association rate constant kon with PDE6δ [2] [M⁻¹ s⁻¹]	association rate constant kon with PDE6δ ([2]; listed as Arl2^ΔN) [M⁻¹ s⁻¹]	dissociation rate constant koff from PDE6δ [2] [s⁻¹]	dissociation rate constant koff from PDE6δ ([2]; listed as Arl2^ΔN) [s⁻¹]
		INPP5E(WT): GFP (LAP)-tagged mouse INPP5E stably expressed in IMCD3 cells (protein, left off: LAP tag (GFP-TEV-site-S-peptide), N-terminal, kept, GFP (LAP)-tagged mouse INPP5E stably expressed in IMCD3 cells) MPSKSACLRHTEAPGQLEGRMLQGQPPNTEKKLIPTPGFLPASDSQGSETNPMPPFSIPAKTSNQNPQTKANLITPQPPIRPKLERTLSLDDKGWRRRRFRGSQEDLTVQNGASPCRGSLQDSVAQSPAYSRPLPCLSTSLQEIPKSRRATGSEGGSPSLWSDCLSGMISTSLDLLHRDAASGGPPSRLASLHASHTPPAMDLSIASSSLRTANKVDPEHTDYKLRMQTRLVRAHSNLGPSRPRSPLAGDDHSIHSARSFSLLAPIRTKDIRSRSYLEGSLLASGALLGAEELARYFPDRNMALFVATWNMQGQKELPASLDEFLLPTEADYTQDLYVIGIQEGCSDRREWETRLQETLGPQYVLLSSAAHGVLYMSLFIRRDLIWFCSEVEYSTVTTRIVSQIKTKGALGVSFTFFGTSFLFITSHFTSGDGKVAERLLDYSRTIQALALPRNVPDTNPYRSSAGDVTTRFDEVFWFGDFNFRLSGGRVAVEAFLKQKPEVDVLALLQHDQLTREMKKGSIFRGFEEAEIHFLPSYKFDIGKDTYDSTSKQRTPSYTDRVLYKSRHKGDICPMKYSSCPGIKTSDHRPVYGLFQVKVRPGRDNIPLAAGKFDRELYLIGIKRRISKEIQRQEALKSQSSSAVC	specifically released only by Arl3·GppNHp					
		INPP5E(KS) mutant: GFP-tagged INPP5E S641K/V643S protein stably expressed in IMCD3 cells (protein, left off: LAP tag (GFP-TEV-site-S-peptide), N-terminal, kept, GFP-tagged INPP5E S641K/V643S protein stably expressed in IMCD3 cells) MPSKSACLRHTEAPGQLEGRMLQGQPPNTEKKLIPTPGFLPASDSQGSETNPMPPFSIPAKTSNQNPQTKANLITPQPPIRPKLERTLSLDDKGWRRRRFRGSQEDLTVQNGASPCRGSLQDSVAQSPAYSRPLPCLSTSLQEIPKSRRATGSEGGSPSLWSDCLSGMISTSLDLLHRDAASGGPPSRLASLHASHTPPAMDLSIASSSLRTANKVDPEHTDYKLRMQTRLVRAHSNLGPSRPRSPLAGDDHSIHSARSFSLLAPIRTKDIRSRSYLEGSLLASGALLGAEELARYFPDRNMALFVATWNMQGQKELPASLDEFLLPTEADYTQDLYVIGIQEGCSDRREWETRLQETLGPQYVLLSSAAHGVLYMSLFIRRDLIWFCSEVEYSTVTTRIVSQIKTKGALGVSFTFFGTSFLFITSHFTSGDGKVAERLLDYSRTIQALALPRNVPDTNPYRSSAGDVTTRFDEVFWFGDFNFRLSGGRVAVEAFLKQKPEVDVLALLQHDQLTREMKKGSIFRGFEEAEIHFLPSYKFDIGKDTYDSTSKQRTPSYTDRVLYKSRHKGDICPMKYSSCPGIKTSDHRPVYGLFQVKVRPGRDNIPLAAGKFDRELYLIGIKRRISKEIQRQEALKSQSSKASCTVS	can indeed be released by both Arl2·GppNHp and Arl3·GppNHp					
316 ± 6.3	149 ± 19	Arl2^fl: full-length Arl2, mantGppNHp loaded (protein, left off: His tag, C-terminal, state not stated, full-length Arl2, mantGppNHp loaded) MGLLTILKKMKQKERELRLLMLGLDNAGKTTILKKFNGEDVDTISPTLGFNIKTLEHRGFKLNIWDVGGQKSLRSYWRNYFESTDGLIWVVDSADRQRMQDCQRELQSLLVEERLAGATLLIFANKQDLPGALSCNAIQEALELDSIRSHHWRIQGCSAVTGEDLLPGIDWLLDDISSRVFTAD		threefold	2.25e+06	3.09e+06	0.33	0.98
